In experiment [1] the target is T1, Human IL-11Rα endogenously expressed on primary human cells (human, UniProt Q14626 23-422).
T1 sequence (looked up): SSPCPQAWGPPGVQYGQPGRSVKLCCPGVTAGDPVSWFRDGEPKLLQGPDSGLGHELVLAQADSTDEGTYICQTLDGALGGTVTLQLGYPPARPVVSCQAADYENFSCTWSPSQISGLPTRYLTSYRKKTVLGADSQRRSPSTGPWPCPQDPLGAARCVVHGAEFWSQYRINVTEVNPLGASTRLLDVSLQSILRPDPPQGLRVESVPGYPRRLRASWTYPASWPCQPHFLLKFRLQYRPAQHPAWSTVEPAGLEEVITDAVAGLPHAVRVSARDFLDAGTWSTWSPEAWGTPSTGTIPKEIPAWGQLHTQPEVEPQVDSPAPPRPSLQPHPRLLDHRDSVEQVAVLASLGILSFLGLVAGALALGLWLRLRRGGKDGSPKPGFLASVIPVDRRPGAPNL
The experiment in a line: cell-based or functional assay.

Experiment [2] has as its target T1, Human IL-11Rα endogenously expressed on …. As to the kind of experiment: cell-based or functional assay. This is another data set of the same source.
The target in experiment [3] is T2, IL-11:IL-11Rα fusion protein (hyper IL-11).
T2 chain: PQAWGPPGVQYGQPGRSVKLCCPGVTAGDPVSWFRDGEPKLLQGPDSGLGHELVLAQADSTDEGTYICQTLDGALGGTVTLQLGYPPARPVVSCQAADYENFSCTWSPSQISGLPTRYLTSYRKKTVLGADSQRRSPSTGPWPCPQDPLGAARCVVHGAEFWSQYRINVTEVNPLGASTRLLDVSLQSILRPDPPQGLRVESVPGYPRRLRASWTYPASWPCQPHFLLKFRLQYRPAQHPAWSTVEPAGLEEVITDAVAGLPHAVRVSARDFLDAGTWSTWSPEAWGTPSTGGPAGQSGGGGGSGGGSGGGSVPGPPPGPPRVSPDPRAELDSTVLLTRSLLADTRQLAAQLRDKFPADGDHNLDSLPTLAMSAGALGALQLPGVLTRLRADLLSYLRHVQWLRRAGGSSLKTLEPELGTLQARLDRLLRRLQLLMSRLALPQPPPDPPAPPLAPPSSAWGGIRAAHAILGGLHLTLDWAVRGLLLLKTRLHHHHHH
As to the kind of experiment: cell-based or functional assay.

Experiment [4] deals with T3, Mouse IL-11Rα endogenously expressed on primary mouse fibroblasts (mouse, UniProt Q64385 24-432).
T3 sequence (looked up): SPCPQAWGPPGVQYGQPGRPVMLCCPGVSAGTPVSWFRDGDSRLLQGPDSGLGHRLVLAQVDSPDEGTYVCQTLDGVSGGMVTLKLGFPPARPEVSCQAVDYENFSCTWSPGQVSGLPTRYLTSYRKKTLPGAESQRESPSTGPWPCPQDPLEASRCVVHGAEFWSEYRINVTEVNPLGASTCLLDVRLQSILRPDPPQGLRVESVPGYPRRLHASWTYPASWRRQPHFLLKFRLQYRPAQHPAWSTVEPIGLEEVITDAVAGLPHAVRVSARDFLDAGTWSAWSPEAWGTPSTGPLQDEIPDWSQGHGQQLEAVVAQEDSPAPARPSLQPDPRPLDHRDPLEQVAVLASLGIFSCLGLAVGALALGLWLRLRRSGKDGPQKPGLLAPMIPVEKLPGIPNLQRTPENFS
The experiment in a line: cell-based or functional assay.

Experiment [5] concerns the target T2, IL-11:IL-11Rα fusion protein (hyper …). The experiment in a line: cell-based or functional assay.
Experiment [6] has as its target T1, Human IL-11Rα endogenously expressed on …. As to the kind of experiment: cell-based or functional assay. This is another data set of the same source.
The target is the same in experiment [7]. As to the kind of experiment: cell-based or functional assay. The source holds these as a separate data set.
Experiment [8] shares this target. The experiment in a line: cell-based or functional assay. The source holds these as a separate data set.
The target in experiment [9] is T4, IL-11Rα as used in the Biacore kinetics of Example 14 (UniProt Q14626 23-363, limits assumed).
T4 sequence (looked up): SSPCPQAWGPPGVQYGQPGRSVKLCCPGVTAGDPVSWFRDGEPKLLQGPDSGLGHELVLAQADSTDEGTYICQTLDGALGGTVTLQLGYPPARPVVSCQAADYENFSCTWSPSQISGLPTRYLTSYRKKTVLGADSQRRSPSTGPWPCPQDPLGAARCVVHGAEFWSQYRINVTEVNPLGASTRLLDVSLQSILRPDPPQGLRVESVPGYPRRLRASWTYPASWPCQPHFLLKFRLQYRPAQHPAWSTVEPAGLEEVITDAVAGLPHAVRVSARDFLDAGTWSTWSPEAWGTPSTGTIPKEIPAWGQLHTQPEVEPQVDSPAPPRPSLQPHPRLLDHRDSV
As to the kind of experiment: SPR (Biacore T200), multi-cycle kinetics, 25 C, HBS-P+ pH 7.4 with 0.1% BSA. On the procedure:
The six antibodies were assessed by multi-cycle kinetics analysis at a final concentration of 1 μg/ml, run at 25° C. with HBS-P+ running buffer (pH 7.4) containing 0.1% BSA using a Biacore T200 instrument.
The relative KD was calculated by dividing the KD of the humanised variant by that of the 9A7 antibody assayed in the same experiment. All six humanised antibodies bound to IL-11R within two-fold of 9A7 (SEQ ID NO:7 and 13).

Experiment [10] deals with Tagged human IL-11Rα expressed at the surface of transiently transfected cells (human) (UniProt Q14626). As to the kind of experiment: same assay; by the legend the percent is the strength of binding relative to the anti-FLAG positive control (100%); negative control 3%.
For experiment [11], the target named is T5, Recombinant human IL-11Rα (Sino Biological Cat. No. 10252-H08H) (human, UniProt Q14626 23-363).
T5 construct: Bought protein, immobilised on the chip
T5 sequence (looked up): T4 sequence (looked up)
As to the kind of experiment: SPR, BIAcore T200, multi-cycle kinetics; recombinant human IL-11Rα immobilised, antibody (IgG1 format) flowed at 100 to 1.56 nM; 1:1 model; analysis (1); Chi2 0.181 RU2.

The target in experiment [12] is T5, Recombinant human IL-11Rα (Sino …). As to the kind of experiment: SPR, BIAcore T200, multi-cycle kinetics; recombinant human IL-11Rα immobilised, antibody (IgG1 format) flowed at 50 to 1.56 nM; 1:1 model; analysis (2); Chi2 0.0356 RU2.
Experiment [13] concerns the target Tagged human IL-11Rα expressed at the surface of transiently transfected cells (human) (UniProt Q14626). As to the kind of experiment: flow cytometry of subcloned hybridoma supernatant on cells transiently transfected with FLAG-tagged human IL-11Rα (sheet head: 'cells transfected with pB1-IL11-hum.FL', 'flow cytometry (Attunes)'); fluorescent anti-mouse IgG secondary; negative control GMFI 930.

B1: Anti-IL-11Rα antibody clone BSO-9A7 (antibody, V domains shown)
VH: QVQLQQPGAELVRPGSSVKLSCKASGYTFTNYWMHWLKQRPVQGLEWIGNIGPSDSKTHYNQKFKDKATLTVDKSSSTAYMQLNSLTSEDSAVYYCARGDYVLFTYWGQGTLVTVSA
VL: DIVLTQSPATLSMTPGDSVSLSCRASQSISNNLHWYQQKSHESPRLLIKYASQSISGIPSRFSGSGSGTDFTLSFNSVETEDFGVYFCQQSYSWPLTFGAGTKLELK
notes: also called RA7; 9A7 VH/VL
Take B1: the “IC50 of inhibition of MMP2 secretion by HSCs stimulated with TGFβ1 (5 ng/ml, 24 h)” value in experiment [1] stood at 5.4 pM. Moreover, in [2], the “IC50 of inhibition of MMP2 secretion, human atrial fibroblasts + TGFB1 5 ng/ml, 24 h (panel 'MMP2 - TGFB - 9A7')” value turned out to be 82 ng/mL and the “IC50 of inhibition of TIMP1 secretion, human atrial fibroblasts + TGFB1 5 ng/ml, 24 h (panel 'TIMP1 - TGFB - 9A7')” value stood at 97.4 ng/mL. In addition, in [3], the “IC50 of inhibition of MMP2 secretion, human atrial fibroblasts + IL-11:IL11RA (hyper IL-11) 0.2 ng/ml (panel 'MMP2 - IL-11:IL11RA - 9A7')” value was determined as 246 ng/mL and the “IC50 of inhibition of TIMP1 secretion, human atrial fibroblasts + IL-11:IL11RA (hyper IL-11) 0.2 ng/ml (panel 'TIMP1 - IL-11:IL11RA - 9A7')” value came to 196 ng/mL. Further, in [4], the “IC50 of inhibition of MMP2 secretion, primary mouse cardiac fibroblasts + TGFB1 5 ng/ml (endogenous IL-11) (panel 'TGFB1-driven MMP2 secretion')” value was determined as 14.6 ng/mL and the “IC50 of inhibition of MMP2 secretion, primary mouse cardiac fibroblasts + exogenous IL-11 2 ng/ml (panel 'IL-11-driven MMP2 secretion')” value came out at 29.2 ng/mL. The “IC50 of inhibition of MMP2 secretion, primary mouse cardiac fibroblasts + IL-11:IL11RA (hyper IL-11) 0.2 ng/ml (panel 'IL-11:IL11RA-driven MMP2 secretion')” value in [5] amounted to 35.1 ng/mL. Further, in [6], the “IC50 of inhibition of MMP2 secretion, primary human hepatic stellate cells + TGFB1 5 ng/ml (endogenous IL-11); upper panel” value worked out at 0.93 ng/mL and the “IC50 of inhibition of MMP2 secretion, primary human hepatic stellate cells + exogenous IL-11 2 ng/ml; lower panel” value came out at 1.64 ng/mL. Besides, the “IC50 of inhibition of MMP2 secretion, primary human atrial fibroblasts + TGFβ1 (panel '9A7')” value in experiment [7] was 5.88 ng/mL. Further, in [8], the “IC50 of inhibition of TIMP1 secretion, primary human lung fibroblasts + TGFB1 5 ng/ml (panel '9A7')” value came out at 2.29 ng/mL. In addition, in experiment [9], the Kd was 4.29 nM, the koff came to 0.000926 s⁻¹, the kon was 216000 M⁻¹ s⁻¹ and the “relative KD (KD divided by KD of 9A7)” value was 1 ratio to 9A7. The molecule further gave a % positive in [10] of 111%. Also, in [11], the Kd stood at 7.85 nM, the koff came to 0.000759 s⁻¹ and the kon was 96600 M⁻¹ s⁻¹. Besides, in experiment [12], the Kd came out at 5.46 nM, the koff came to 0.000875 s⁻¹ and the kon was determined as 160000 M⁻¹ s⁻¹. Moreover, in [13], the GMFI was determined as 34800.
